Numbering of substitutions follows the chain as printed.

In this assay the target is T1, CD137-hisFc fusion protein (Sino Biological Cat 10041-H03H) (human, UniProt Q07011 24-186).
T1 construct: Bought; also called recombinant human CD137 (fused with human Fc and His tag); not shown: His tag and human Fc
In words: BLI Octet, Fab. Background: BLI is a label-free optical method that tracks binding on a fibre tip over time.

B1: Fab 5349 (Fab, V domains shown)
VH: EVQLVESGGGLVQPGGSLRLSCAASGYSITSGHYWAWIRQAPGKGLEWVSAISGSGSSTYYADSVKGRFTISRDNSKNTLYLQLNSLRAEDTAVYYCARGGSDTVLGDWFAYWGQGTLVTVSS
VL: DIQLTQSPSSLSASVGDRVTITCRASQGISSSLAWYQQKPGKAPKLLIYDASNLETGVPSRFSGSGSGTDFTLTISSLQPEDFATYYCQQGYSTWTFGQGTKVEIKR
notes: Fab from E. coli; also called VH24/VL24
A word on the Kd: it is the concentration at which binding is half-saturated. Higher therefore signals weaker binding. The koff is a measure of how fast the partners let go of each other. Read a high koff as fast dissociation. Usually kon stands for the rate constant with which the complex forms. The low end stands for slow association, the high end for fast association. On to B1, for which the Kd was determined as 6.2 nM, the koff is 0.00101 s⁻¹ and the kon is 162000 M⁻¹ s⁻¹.

B2: Fab 4076 (Fab, V domains shown)
VH: EVQLVESGGGLVQPGGSLRLSCAASGYSITSGYHWGWIRQAPGKGLEWVSAISGAGGSTYYADSVKGRFTISRDNSKNTLYLQLNSLRAEDTAVYYCARDGYGGSYFDYWGQGTLVTVSS
VL: B1 VL with R24Q, G28D, S31T, S32F, N53S, T56S, G91A, T94I
notes: Fab from E. coli; also called VH4/VL4
For B2, the Kd was 7.44 nM, the koff was determined as 0.000475 s⁻¹ and the kon was determined as 63800 M⁻¹ s⁻¹.

B3: Fab 7097 (Fab, V domains shown)
VH: B1 VH with T30S, Y34H, A36D, A51Y, S55A, S57D, S58T, G100E, T104A
VL: DIQLTQSPSSLSASVGDRVTITCRASQGISSYLAWYQQKPGKAPKLLIYDASNLETGVPSRFSGSGSGTDFTLTISSLQPEDFATYYCQQYYSTPLTFGQGTKVEIKR
notes: Fab from E. coli; also called VH49/VL49
B3 had a Kd of 24.3 nM, a koff of 0.0132 s⁻¹ and a kon of 542000 M⁻¹ s⁻¹.

B4: Fab 4134 (Fab, V domains shown)
VH: EVQLVESGGGLVQPGGSLRLSCAASGYSISSGHHWGWIRQAPGKGLEWVSGISGYGDTTYYADSVKGRFTISRDNSKNTLYLQLNSLRAEDTAVYYCARDPYSSGSGYFDYWGQGTLVTVSS
VL: B1 VL with S32A, A34G, D50A, N53S, E55Q, T56S, G91S, S93Y
notes: Fab from E. coli; also called VH6/VL6
B4: the Kd is 13 nM, the koff is 0.000769 s⁻¹ and the kon was 59300 M⁻¹ s⁻¹.

B5: Fab 5417 (Fab, V domains shown)
VH: EVQLVESGGGLVQPGGSLRLSCAASGFSLSTSGVGVAWIRQAPGKGLEWVSSISGAGGTTYYADSVKGRFTISRDNSKNTLYLQLNSLRAEDTAVYYCARGGSTAVTGDWFDYWGQGTLVTVSS
VL: B1 VL with S31P, S32Y, L54R, E55A, V58I, T94L
notes: Fab from E. coli; also called VH39/VL39
Regarding B5, the Kd is 40.4 nM, the koff was 0.00231 s⁻¹ and the kon was 57200 M⁻¹ s⁻¹.

B6: Fab 5346 (Fab, V domains shown)
VH: B5 VH with S32G, A37G, S52G, A56Y, G58S, G101E, T104D, T107A
VL: B1 VL with G28D, S30R, S32Y, L54R, E55A, V58I, T94I
notes: Fab from E. coli; also called VH22/VL22
As to B6, the Kd is 16.1 nM, the koff stood at 0.00977 s⁻¹ and the kon is 605000 M⁻¹ s⁻¹.

B7: Fab 5407 (Fab, V domains shown)
VH: B5 VH with G16A, S32G, A56Y, G58S, G101E, T104D, T107L, D112G
VL: B1 VL with R24Q, G28D, S30T, S31T, S32Y, L54R, E55A, V58I, S93Y, T94L
notes: Fab from E. coli; also called VH35/VL35
In turn, B7 showed a Kd of 1.76 nM, a koff of 0.000437 s⁻¹ and a kon of 248000 M⁻¹ s⁻¹.

B8: Fab 5363 (Fab, V domains shown)
VH: B1 VH with T30S, A36T, T104A
VL: B1 VL with I29V, S30G, S32Y, S93Q, T94L
notes: Fab from E. coli; also called VH29/VL29
Molecule B8 showed a Kd of 9.87 nM, a koff of 0.000826 s⁻¹ and a kon of 83700 M⁻¹ s⁻¹.

B9: Fab 3760 (Fab, V domains shown)
VH: EVQLVESGGGLVQPGGSLRLSCAASGFTFTSYGIHWVRQAPGKGLEWVSGISGAGDTTYYADSVKGRFTISRDNSKNTLYLQLNSLRAEDTAVYYCARERDYDFDYWGQGTLVTVSS
VL: B3 VL with G28S, I29V, Y91S, P95S, L96H
notes: Fab from E. coli; also called VH1/VL1
B9 displayed a Kd of 12.6 nM, a koff of 0.00444 s⁻¹ and a kon of 352000 M⁻¹ s⁻¹.

B10: Fab 7159 (Fab, V domains shown)
VH: EVQLVESGGGLVQPGGSLRLSCAASGFSLSTSGVGVGWIRQAPGKGLEWIGDIYHSGSTYYNPSLKSRVTISRDNSKNTLYLQLNSLRAEDTAVYYCAREGSTAVLGDWFAYWGQGTLVTVSS
VL: B3 VL with G28S, A34N, D50A, N53T, E55Q, T56S
notes: Fab from E. coli; also called VH58/VL58
Turning to B10, the Kd turned out to be 37.9 nM, the koff was 0.00403 s⁻¹ and the kon worked out at 106000 M⁻¹ s⁻¹.

B11: Fab 7080 (Fab, V domains shown)
VH: B5 VH with S32G, A37G, S52Y, G101E, T104D, A105T, T107L, D112A
VL: B3 VL with S93T
notes: Fab from E. coli; also called VH43/VL43
B11 returned a Kd of 24.4 nM, a koff of 0.00746 s⁻¹ and a kon of 306000 M⁻¹ s⁻¹.

B12: Fab 7135 (Fab, V domains shown)
VH: B5 VH with S32G, A37G, A56S, T59S, G101E, T104D, A105T, T107L, D112A
VL: B3 VL with I29V, S93T
notes: Fab from E. coli; also called VH57/VL57
For B12, the affinity, expressed as Kd, was 31.7 nM; the koff is 0.00322 s⁻¹; the kon was found to be 102000 M⁻¹ s⁻¹.

B13: Fab 7081 (Fab, V domains shown)
VH: B5 VH with S32G, A37G, S52Y, G101E, T104D, T107L, D112A
VL: B3 VL with S93T
notes: Fab from E. coli; also called VH44/VL44
B13 displayed a Kd of 43.1 nM, a koff of 0.0123 s⁻¹ and a kon of 287000 M⁻¹ s⁻¹.

B14: Fab 7078 (Fab, V domains shown)
VH: B5 VH with S32G, A37G, S52Y, A56D, G58D, G101E, T104D, A105T, T107A, D112A
VL: B3 VL with S93T
notes: Fab from E. coli; also called VH41/VL41
The molecule B14 showed a Kd of 25.2 nM, a koff of 0.0087 s⁻¹ and a kon of 345000 M⁻¹ s⁻¹.

B15: Fab 7087 (Fab, V domains shown)
VH: B5 VH with S32G, A37G, S52Y, A56D, G58D, G101E, T107L, D112A
VL: B3 VL with S93T
notes: Fab from E. coli; also called VH45/VL45
As for B15, the affinity, expressed as Kd, was 69.6 nM; the koff is 0.00855 s⁻¹; the kon turned out to be 123000 M⁻¹ s⁻¹.

B16: Fab 7120 (Fab, V domains shown)
VH: B5 VH with A37G, S52Y, A56D, G58D, G101E, A105T, T107L, D112A
VL: B3 VL
notes: Fab from E. coli; also called VH53/VL53
Regarding B16, binding was put at a Kd of 34.5 nM, the koff was 0.00911 s⁻¹ and the kon worked out at 264000 M⁻¹ s⁻¹.

B17: Fab 7077 (Fab, V domains shown)
VH: B5 VH with S32G, S52Y, A56S, G58D, G101E, T104D, A105T, T107V, D112A
VL: B3 VL with S93T
notes: Fab from E. coli; also called VH40/VL40
The molecule B17 displayed a Kd of 18.8 nM, a koff of 0.00934 s⁻¹ and an on-rate constant (kon) of 498000 M⁻¹ s⁻¹.

B18: Fab 7079 (Fab, V domains shown)
VH: B5 VH with A56Y, G101E, T104D, A105T, T107L, D112A
VL: B3 VL with S93T
notes: Fab from E. coli; also called VH42/VL42
The molecule B18 yielded a Kd of 29.9 nM, a koff of 0.003 s⁻¹ and a kon of 100000 M⁻¹ s⁻¹.

B19: Fab 7100 (Fab, V domains shown)
VH: B5 VH with A37G, S52Y, A56D, T59S, G101E, T104D, A105T, T107L, D112A
VL: B3 VL
notes: Fab from E. coli; also called VH50/VL50
The molecule B19 had a Kd of 35 nM, a koff of 0.0162 s⁻¹ and a kon of 462000 M⁻¹ s⁻¹.

B20: Fab 7133 (Fab, V domains shown)
VH: B5 VH with A56Y, T80R, G101E, T104D, A105T, T107L, D112A
VL: B3 VL with I29V, S93T
notes: Fab from E. coli; also called VH56/VL56
On to B20, for which binding was characterised by a dissociation constant (Kd) of 40.3 nM, the koff came to 0.00405 s⁻¹ and the kon was determined as 101000 M⁻¹ s⁻¹.

B21: Fab 7109 (Fab, V domains shown)
VH: B5 VH with A37S, S52Y, A56S, G58D, G101E, T104D, T107L, D112A
VL: B3 VL
notes: Fab from E. coli; also called VH52/VL52
Consider B21, for which binding was characterised by a dissociation constant (Kd) of 32 nM, the koff is 0.00555 s⁻¹ and the kon was 173000 M⁻¹ s⁻¹.

B22: Fab 7131 (Fab, V domains shown)
VH: B5 VH with S32G, A37G, S52Y, G58D, T59S, G101E, T104D, A105T, T107L, D112A
VL: B3 VL with I29V, S93T
notes: Fab from E. coli; also called VH55/VL55
The molecule B22 had a Kd of 30.4 nM, a koff of 0.0081 s⁻¹ and an association rate constant (kon) of 266000 M⁻¹ s⁻¹.

B23: Fab 7105 (Fab, V domains shown)
VH: B5 VH with S32G, A37G, S52Y, G58S, G101E, T104D, A105T, T107L, D112A
VL: B3 VL
notes: Fab from E. coli; also called VH51/VL51
Take B23: binding was characterised by a dissociation constant (Kd) of 33.3 nM, the koff turned out to be 0.011 s⁻¹ and the kon is 330000 M⁻¹ s⁻¹.

B24: Fab 7092 (Fab, V domains shown)
VH: B5 VH with V34M, A37G, S52Y, A56Y, G101E, T104D, A105V, T107A, D112A
VL: B3 VL
notes: Fab from E. coli; also called VH48/VL48
As to B24, binding was characterised by a dissociation constant (Kd) of 45.7 nM, the koff is 0.0197 s⁻¹ and the kon came to 431000 M⁻¹ s⁻¹.

B25: Fab 7090 (Fab, V domains shown)
VH: B5 VH with S32G, S52Y, A56Y, G101E, T107L, D112A
VL: B3 VL
notes: Fab from E. coli; also called VH47/VL47
B25 displayed a dissociation constant Kd of 55.5 nM, a koff of 0.0173 s⁻¹ and a kon of 312000 M⁻¹ s⁻¹.

B26: Fab 7088 (Fab, V domains shown)
VH: B5 VH with A37G, S52Y, A56D, T59S, G101E, T107V, D112A
VL: B3 VL with S93T
notes: Fab from E. coli; also called VH46/VL46
With B26, the Kd is 43.6 nM, the off-rate (koff) amounted to 0.0111 s⁻¹ and the kon was determined as 255000 M⁻¹ s⁻¹.

B27: Fab 7128 (Fab, V domains shown)
VH: B5 VH with S32G, S52Y, A56D, G101E, T104D, A105T, T107L, D112A
VL: B3 VL with Y91S
notes: Fab from E. coli; also called VH54/VL54
B27 yielded a Kd of 39.7 nM, an off-rate (koff) of 0.0123 s⁻¹ and a kon of 309000 M⁻¹ s⁻¹.

B28: Fab 4079 (Fab, V domains shown)
VH: EVQLVESGGGLVQPGGSLRLSCAASGFTFTGYWIHWVRQAPGKGLEWVGRIRSKTDGYTTEYAAPVKGRFTISRDNSKNTLYLQLNSLRAEDTAVYYCARLGGHWYFDVWGQGTLVTVSS
VL: B3 VL with G28S, S30G, S31R, A34N, Q89E, Y91P, Y92L, S93E, T94L, L96R
notes: Fab from E. coli; also called VH5/VL5
For the molecule B28, the Kd is 31.5 nM, the koff is 0.00219 s⁻¹ and the kon amounted to 69300 M⁻¹ s⁻¹.

The values are drawn from patent US20190055314A1 (ADAGENE, published 2019).
